Measured values from patent US20200199202A1 (published 2020).

B1: 548 (antibody, V domains shown)
VH: EVQLQQSGAELVKPGASVKLSCTASGFNIKDTYMHWVKQRPEEGLEWIGRIDPADGNTEYVPKFQGKATITADTFSNTVYLQLSGLTSEDTAVYYCSRGYYWGQGTTLTVSS
VL: DIQMTQSPASLSASVGETVTITCRASENIYSYLAWYQQKQGKSPQLLVYNAKTLAEGVPSRFSGSGSGTQFSLKINSLQPEDFGIYYCQHHYGSPWAFGGGTKLEIK
B2: mAb 548 (anti-human NPC1 domain C monoclonal antibody) (antibody, V domains shown)
VH: EVQLQQSGAELVKPGASVKLSCTASGFNIKDTYMHWVKQRPEEGLEWIGRIDPADGNTEYVPKFQGKATITADTFSNTVYLQLSGLTSEDTAVYYCSRGYYWGQGTTLTVSS
VL: DIQMTQSPASLSASVGETVTITCRASENIYSYLAWYQQKQGKSPQLLVYNAKTLAEGVPSRFSGSGSGTQFSLKINSLQPEDFGIYYCQHHYGSPWAFGGGTKLEIK

Legend:
NHP NPC1-C = NHP NPC1-C (Colobus guereza); assay: BLI; pH 5.5
[1] = biological target: T1, soluble human NPC1 domain C protein (UniProt O15118 372-622); assay: BLI; pH 7.5
T1 chain: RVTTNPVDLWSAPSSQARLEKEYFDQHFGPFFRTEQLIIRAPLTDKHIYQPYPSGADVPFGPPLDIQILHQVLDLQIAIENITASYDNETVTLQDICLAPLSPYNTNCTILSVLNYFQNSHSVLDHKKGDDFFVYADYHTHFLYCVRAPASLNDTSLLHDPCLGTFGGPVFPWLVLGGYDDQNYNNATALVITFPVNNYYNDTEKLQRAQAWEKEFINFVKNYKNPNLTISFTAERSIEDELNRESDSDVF

[2] = biological target: T1, soluble human NPC1 domain C protein; assay: BLI; pH 5.5
[3] = biological target: T1, soluble human NPC1 domain C protein; assay: BLI; pH 7.5

Row | Binder | Kd (NHP NPC1-C) [pM] | Kd [1] [pM] | Kd [2] [pM] | Kd [3] [pM]
1 | B1 | < 1 | – | – | –
2 | B2 | – | < 1 | < 1 | < 1
